Sequences and labels used below:
B1: BBSome complex member BBS2 (Homo sapiens), Q9BXC9 (parent)
chain: MLLPVFTLKLRHKISPRMVAIGRYDGTHPCLAAATQTGKVFIHNPHTRNQHVSASRVFQSPLESDVSLLSINQAVSCLTAGVLNPELGYDALLVGTQTNLLAYDVYNNSDLFYREVADGANAIVLGTLGDISSPLAIIGGNCALQGFNHEGSDLFWTVTGDNVNSLALCDFDGDGKKELLVGSEDFDIRVFKEDEIVAEMTETEIVTSLCPMYGSRFGYALSNGTVGVYDKTSRYWRIKSKNHAMSIHAFDLNSDGVNELITGWSNGKVDARSDRTGEVIFKDNFSSAIAGVVEGDYRMDGHIQLICCSVDGEIRGYLPGTAEMRGNLMDTSAEQDLIRELSQKKQNLLLELRNYEENAKAELASPLNEADGHRGIIPANTRLHTTLSVSLGNETQTAHTELRISTSNDTIIRAVLIFAEGIFTGESHVVHPSIHNLSSSICIPIVPPKDVPVDLHLKAFVGYRSSTQFHVFESTRQLPRFSMYALTSLDPASEPISYVNFTIAERAQRVVVWLGQNFLLPEDTHIQNAPFQVCFTSLRNGGHLHIKIKLSGEITINTDDIDLAGDIIQSMASFFAIEDLQVEADFPVYFEELRKVLVKVDEYHSVHQKLSADMADHSNLIRSLLVGAEDARLMRDMKTMKSRYMELYDLNRDLLNGYKIRCNNHTELLGNLKAVNQAIQRAGRLRVGKPKNQVITACRDAIRSNNINTLFKIMRVGTASS
partner: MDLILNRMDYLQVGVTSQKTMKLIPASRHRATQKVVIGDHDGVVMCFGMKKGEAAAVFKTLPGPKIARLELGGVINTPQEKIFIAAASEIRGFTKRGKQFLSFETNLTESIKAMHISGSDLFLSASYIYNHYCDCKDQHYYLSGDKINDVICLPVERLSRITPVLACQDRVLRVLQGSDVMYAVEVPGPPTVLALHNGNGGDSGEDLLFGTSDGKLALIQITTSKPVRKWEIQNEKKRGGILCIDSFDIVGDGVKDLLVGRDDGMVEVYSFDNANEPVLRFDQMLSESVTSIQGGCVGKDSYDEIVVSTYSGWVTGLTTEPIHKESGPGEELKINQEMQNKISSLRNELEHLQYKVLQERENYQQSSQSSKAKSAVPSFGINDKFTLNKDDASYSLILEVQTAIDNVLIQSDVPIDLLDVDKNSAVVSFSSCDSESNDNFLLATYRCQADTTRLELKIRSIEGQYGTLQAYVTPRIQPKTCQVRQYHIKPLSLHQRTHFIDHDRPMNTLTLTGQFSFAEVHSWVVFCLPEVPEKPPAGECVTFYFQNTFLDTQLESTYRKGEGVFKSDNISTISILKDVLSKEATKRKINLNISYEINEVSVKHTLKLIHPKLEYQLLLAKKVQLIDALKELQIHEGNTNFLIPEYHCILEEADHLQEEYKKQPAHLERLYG

The assay covers variants of B1. The following applies: with BBS7, Q8IWZ6-2.
As to K449A, the “effect of a mutation on the interaction” value is reported as “with no effect”. In the case of K449E, the “effect of a mutation on the interaction” value is “with no effect”.

Take S439A: the “effect of a mutation on the interaction” value is given as “with no effect”. Turning to S439E, the “effect of a mutation on the interaction” value was “with no effect”. On to S439K, for which the “effect of a mutation on the interaction” value was “with no effect”. Take V446K: the “effect of a mutation on the interaction” value is recorded as “with no effect”. As to V446E, the “effect of a mutation on the interaction” value is listed as “with no effect”. On to V446A, for which the “effect of a mutation on the interaction” value was “with no effect”. As for S433A, the “effect of a mutation on the interaction” value was “with no effect”. Consider S433E, for which the “effect of a mutation on the interaction” value is “with no effect”. S433K: the “effect of a mutation on the interaction” value was “with no effect”. For the variant S440K, the “effect of a mutation on the interaction” value is given as “with no effect”. Consider S440A, for which the “effect of a mutation on the interaction” value is listed as “disrupting interaction strength”. In the case of S440E, the “effect of a mutation on the interaction” value was “disrupting interaction strength”.

Consider S440F, for which the “effect of a mutation on the interaction” value is “disrupting interaction strength”. For H431K, the “effect of a mutation on the interaction” value is “with no effect”. Take H431E: the “effect of a mutation on the interaction” value is reported as “with no effect”. With H431A, the “effect of a mutation on the interaction” value is “with no effect”. Then I434K, with “with no effect”. Consider I434E, for which the “effect of a mutation on the interaction” value is listed as “with no effect”. With I434A, the “effect of a mutation on the interaction” value was “with no effect”. With H428E, the “effect of a mutation on the interaction” value is “with no effect”.

Turning to H428A, the “effect of a mutation on the interaction” value is on record as “with no effect”. Then H428K, with “with no effect”. For the variant V429E, the “effect of a mutation on the interaction” value was “with no effect”. Then V429K, with “with no effect”; and V429A, with “with no effect”; and L437E, with “with no effect”. As for L437A, the “effect of a mutation on the interaction” value is “with no effect”. To L437K belongs “disrupting interaction strength”; to S438A, “with no effect”. Then S438E, with “with no effect”. In the case of S438K, the “effect of a mutation on the interaction” value was “with no effect”.

For the variant I443A, the “effect of a mutation on the interaction” value was “with no effect”.

Regarding I443E, the “effect of a mutation on the interaction” value was “with no effect”. Take I443K: the “effect of a mutation on the interaction” value is given as “disrupting interaction strength”.

Take D450A: the “effect of a mutation on the interaction” value is on record as “with no effect”. As to D450E, the “effect of a mutation on the interaction” value is reported as “with no effect”. Take D450K: the “effect of a mutation on the interaction” value was “disrupting interaction strength”. On to P452K, for which the “effect of a mutation on the interaction” value was “with no effect”. Take P452A: the “effect of a mutation on the interaction” value is “with no effect”. In the case of P452E, the “effect of a mutation on the interaction” value is listed as “with no effect”. To N436K belongs “with no effect”; to N436E, “with no effect”. As to N436A, the “effect of a mutation on the interaction” value is listed as “with no effect”. In the case of S427A, the “effect of a mutation on the interaction” value is reported as “with no effect”. With S427K, the “effect of a mutation on the interaction” value was “with no effect”. Turning to S427E, the “effect of a mutation on the interaction” value was “with no effect”. For P447E, the “effect of a mutation on the interaction” value was “disrupting interaction strength”.

In the case of P447A, the “effect of a mutation on the interaction” value is “with no effect”. Turning to P447K, the “effect of a mutation on the interaction” value was “disrupting interaction strength”.

E426K: the “effect of a mutation on the interaction” value is “with no effect”. Then E426A, with “with no effect”; and T424K, with “with no effect”; and T424A, with “with no effect”.

As for T424E, the “effect of a mutation on the interaction” value is given as “with no effect”.

With V430E, the “effect of a mutation on the interaction” value was “with no effect”. Regarding V430K, the “effect of a mutation on the interaction” value is reported as “with no effect”. As to V430A, the “effect of a mutation on the interaction” value is “with no effect”. On to C442E, for which the “effect of a mutation on the interaction” value is “with no effect”. As for C442A, the “effect of a mutation on the interaction” value is listed as “with no effect”.

On to C442K, for which the “effect of a mutation on the interaction” value is “with no effect”.

As to P444K, the “effect of a mutation on the interaction” value is listed as “with no effect”. Take P444A: the “effect of a mutation on the interaction” value was “with no effect”.

As for P444E, the “effect of a mutation on the interaction” value is “with no effect”. To G425K belongs “with no effect”; to G425E, “with no effect”. G425A: the “effect of a mutation on the interaction” value is recorded as “with no effect”. Then H435A, with “with no effect”; and H435K, with “with no effect”. To H435E belongs “with no effect”; to P432E, “with no effect”; to P432A, “with no effect”.

With P432K, the “effect of a mutation on the interaction” value is reported as “with no effect”. On to I445A, for which the “effect of a mutation on the interaction” value was “disrupting interaction strength”. As for I445K, the “effect of a mutation on the interaction” value is listed as “with no effect”. With I445E, the “effect of a mutation on the interaction” value is recorded as “disrupting interaction strength”. To V451K belongs “with no effect”. Then V451E, with “with no effect”; and V451A, with “with no effect”. To P448A belongs “with no effect”; to P448E, “with no effect”; to P448K, “with no effect”. Regarding F423K, the “effect of a mutation on the interaction” value was “with no effect”. To I441R belongs “disrupting interaction strength”; to I441E, “disrupting interaction strength”. Turning to I441A, the “effect of a mutation on the interaction” value is given as “with no effect”.

For the variant I441K, the “effect of a mutation on the interaction” value is on record as “with no effect”.
